Measured values: PMC6955223, “The adaptor proteins HAP1a and GRIP1 collaborate to activate the kinesin-1 isoform KIF5C” (Journal of Cell Science, 2019)

Biological target: T1, KIF5C–Halo (UniProt P28738 1-956, HaloTag TMR ligand on the HaloTag)
T1 construct: kinesin-1 heavy chain KIF5C; construct from Twelvetrees et al., 2016; also called KIF5C labelled with HaloTag TMR ligand; motor; source: COS cells, transfected, in lysate
T1 sequence (looked up): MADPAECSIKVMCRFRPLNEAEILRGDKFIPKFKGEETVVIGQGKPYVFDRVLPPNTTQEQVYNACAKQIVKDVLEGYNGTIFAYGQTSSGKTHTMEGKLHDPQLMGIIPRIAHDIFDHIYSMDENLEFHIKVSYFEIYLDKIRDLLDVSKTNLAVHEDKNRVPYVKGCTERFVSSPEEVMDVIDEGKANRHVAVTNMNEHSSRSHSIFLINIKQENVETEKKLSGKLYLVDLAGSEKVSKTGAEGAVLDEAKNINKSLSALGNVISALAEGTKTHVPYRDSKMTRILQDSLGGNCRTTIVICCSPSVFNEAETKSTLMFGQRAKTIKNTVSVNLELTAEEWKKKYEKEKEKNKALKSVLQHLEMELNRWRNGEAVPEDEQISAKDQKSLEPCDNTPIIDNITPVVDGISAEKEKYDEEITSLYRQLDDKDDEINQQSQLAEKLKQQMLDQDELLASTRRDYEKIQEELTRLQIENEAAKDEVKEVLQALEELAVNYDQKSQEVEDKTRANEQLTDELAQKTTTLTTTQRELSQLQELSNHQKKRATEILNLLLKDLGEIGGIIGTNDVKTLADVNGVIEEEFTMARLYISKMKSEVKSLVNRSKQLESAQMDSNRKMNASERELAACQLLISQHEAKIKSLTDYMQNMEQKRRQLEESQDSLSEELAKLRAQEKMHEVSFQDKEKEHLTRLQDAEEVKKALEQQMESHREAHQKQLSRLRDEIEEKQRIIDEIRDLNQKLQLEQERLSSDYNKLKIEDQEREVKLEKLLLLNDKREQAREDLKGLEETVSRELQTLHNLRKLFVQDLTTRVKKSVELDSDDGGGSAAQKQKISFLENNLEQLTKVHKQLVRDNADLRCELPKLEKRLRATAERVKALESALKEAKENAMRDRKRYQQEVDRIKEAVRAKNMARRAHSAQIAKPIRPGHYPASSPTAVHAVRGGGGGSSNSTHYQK
Test: counting of GFP photobleaching steps (TIRFM); motor–adaptor complexes from mixed cell lysates immobilised on microtubules with 15 mM AMP-PNP instead of ATP; GFP-labelled HAP1a and GRIP1 both present; bleaching steps counted for each spot
Settings: partners not purified

stoichiometry N: 2 HAP1a molecules per motor
B1: GFP-labelled HAP1a (natural protein, rat, UniProt P54256-2 1-599, looked up)
chain: MRPKDQVQSSAGDGTGSGDPATGTPTTQPAADPAPEPSAEPKPAPAQGTGSGQKSGSRTKTGGSFCRSRIRGDSDAPWTRYIFQGPYGPRATGLGTGRAEGIWKTPAAYIGRRPGVSGPERAAFIRELQEALCPNPLPRKKITEDDIKVMLYLLEEKERDLNTAARIGQSLVKQNSVLMEENNKLETMLGSAREEILHLRKQVNLRDDLLQLYSDSDDDEEDEEDEEEEEGEEEEREGQRDQDQQHDHPYGAPKPPPKAETLHHCPQLEALKQKLKLLEEENDHLREEASHLDNLEDKEQMLILECVEQFSEASQQMAELSEVLVLRLEGYERQQKEITQLQAEITKLQQRCQSYGAQTEKLQQQLASEKGVHPESLRAGSHMQDYGSRPRERQEDGKSHRQRSSMPAGSVTHYGYSVPLDALPSFPETLAEELRTSLRKFITDPAYFMERCDTRCREERKKEQGTMPPPPVQDLKPPEDFEAPEELVPEEELGAIEEVGTAEDGPAEETEQASEETEAWEEVEPEVDEATRMNVVVSALEASGLGPSHLDMKYVLQQLSNWQDAHSKRQQKQKVVPKGECSRRGHPPASGTSYRSSTL
notes: huntingtin-associated protein 1, rodent isoform HAP1a; Construct not described in the methods; named only in the sentence on photobleaching; source: cell lysate (COS cells as for the motility assay)
